The source of these data is US20260263521A1 (AIMED BIO, published 2026).

Experiment [1] deals with T1, mouse CD200R1 protein (R&D systems, 2554-CD) (mouse, UniProt Q9ES57 26-238, limits assumed).
T1 construct: Bought; construct not described
T1 sequence (looked up): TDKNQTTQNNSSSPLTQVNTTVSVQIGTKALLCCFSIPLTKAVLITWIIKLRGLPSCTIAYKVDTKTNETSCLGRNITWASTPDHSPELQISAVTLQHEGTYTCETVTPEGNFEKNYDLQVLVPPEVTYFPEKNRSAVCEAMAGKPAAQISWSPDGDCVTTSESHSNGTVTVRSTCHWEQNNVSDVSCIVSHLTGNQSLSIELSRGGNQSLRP
In words: ELISA on mouse CD200R1, O.D 450 nm, 0.0192-300 nM; panel 'P001_CD200R1 mouse 1'. The method, then: (§1) 96-well plates were coated with human CD200R1 (R&D systems, 3414-CD) and mouse CD200R1 protein (R&D systems, 2554-CD) at a concentration of 2 μg/mL at 4° C. for 16 hours and then were blocked with 3% skim milk.
(§2) Color was developed with a TMB substrate solution (Thermo Scientific, 34029, 1-Step™ TMB-ELISA Ultra Substrate Solution). The color reaction was stopped with stop solution (Invitrogen, SS04, ELISA Stop Solution). The absorbance was measured at an optical density of 450 nm.
(§3) The secondary engineered antibodies were evaluated by ELISA in the same manner as in Examples described above.
For orientation: An ELISA detects its analyte on a solid surface through an enzyme-linked reagent.

Experiment [2] deals with T2, human CD200R1 recombinant protein (construct not stated) (human, UniProt Q8TD46 27-266, limits assumed).
T2 sequence (looked up): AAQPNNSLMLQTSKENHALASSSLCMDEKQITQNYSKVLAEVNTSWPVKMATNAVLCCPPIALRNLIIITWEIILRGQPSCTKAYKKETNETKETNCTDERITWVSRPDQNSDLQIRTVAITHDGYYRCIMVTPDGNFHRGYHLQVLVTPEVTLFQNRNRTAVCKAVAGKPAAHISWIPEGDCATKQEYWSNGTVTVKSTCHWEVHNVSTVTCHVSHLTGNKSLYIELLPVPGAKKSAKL
In words: ELISA on human CD200R1, O.D 450 nm, 0.0192-300 nM; panel 'P001_CD200R1 human 1'. The method, then:
as §1, §2, §3

Experiment [3] has as its target T3, human CD200RLa (Sino Biological, 11620-H08H) recombinant protein (human, UniProt Q6Q8B3 24-239).
T3 construct: Bought; construct not described
T3 sequence (looked up): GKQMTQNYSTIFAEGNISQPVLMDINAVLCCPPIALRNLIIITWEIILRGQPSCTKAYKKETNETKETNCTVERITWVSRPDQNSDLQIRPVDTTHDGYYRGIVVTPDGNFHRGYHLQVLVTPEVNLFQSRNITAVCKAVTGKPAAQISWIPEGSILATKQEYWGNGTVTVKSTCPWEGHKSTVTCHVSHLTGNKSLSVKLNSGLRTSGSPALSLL
In words: ELISA, plate-bound human CD200RLa (2 ug/mL), antibody 0.0192-300 nM, O.D 450 nm; panel 'recombinant human CD200RLa'. In a few lines:
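Plates coated overnight (16 h, 4° C) with human or cynomolgus CD200RLa recombinant protein, blocked with 3% skim milk; bound antibody detected by TMB colour development, reaction stopped before reading.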

For experiment [4], the target named is T4, human CD200R1 expressed on cells (Jurkat-CD200R1, U937-CD200R1, HH cells) (human, UniProt Q8TD46 25-348).
T4 construct: whole, on cells; also called HH (CRL-2105); cell surface-expressed CD200R1
T4 sequence (looked up): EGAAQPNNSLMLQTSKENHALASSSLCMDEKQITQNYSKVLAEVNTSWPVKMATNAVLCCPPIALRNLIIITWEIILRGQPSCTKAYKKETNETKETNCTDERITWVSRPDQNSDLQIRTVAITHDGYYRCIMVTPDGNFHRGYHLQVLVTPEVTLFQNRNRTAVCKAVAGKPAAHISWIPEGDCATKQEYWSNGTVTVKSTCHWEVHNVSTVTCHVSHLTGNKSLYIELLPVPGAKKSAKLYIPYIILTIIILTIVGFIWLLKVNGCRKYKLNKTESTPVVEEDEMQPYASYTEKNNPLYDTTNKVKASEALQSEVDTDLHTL
In words: flow cytometry on Jurkat-CD200R1 and HH cells, 500 nM antibody in IgG1 form. The method, then:
The cells were washed by centrifugation at 130 g for 5 minutes. The cells were seeded onto 96-well round-bottom plates (SPL, #34296) at a density of 1×10⁵ cells/well in Flow cytometry staining buffer (Invitrogen, #00-4222-26) or FACS buffer. […] After incubation for 1 hour at 4° C., the cells were treated with Alexa-647 Goat anti-human IgG (H+L) cross-adsorbed secondary antibody (Invitrogen, #A21445) and incubated at 4° C. for an additional 30 minutes. After washing twice with FACS buffer, flow cytometry analysis was performed using a Novocyte Flow cytometer (Agilent).
(In general: A flow cytometer gives signals particle by particle.)

For experiment [5], the target named is T5, recombinant human CD200R1 Fc chimera protein, CF (R&D systems, 3414-CD) (human, UniProt Q8TD46 27-266).
T5 construct: Bought; also called CD200R1-Fc protein; human CD200R1 Fc protein; Fc part of the bought chimera not given
T5 sequence (looked up): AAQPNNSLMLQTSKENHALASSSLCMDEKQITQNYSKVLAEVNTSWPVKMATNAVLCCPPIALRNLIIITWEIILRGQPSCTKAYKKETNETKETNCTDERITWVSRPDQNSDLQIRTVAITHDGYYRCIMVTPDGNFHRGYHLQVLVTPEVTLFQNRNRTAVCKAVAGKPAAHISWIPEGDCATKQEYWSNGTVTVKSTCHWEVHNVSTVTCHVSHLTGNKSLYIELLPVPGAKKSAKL
In words: competition ELISA: antibody on coated human CD200R1-Fc, competitor rhCD200-Fc at 1 µg/mL, bound CD200 detected. The method, then: 96-well plates were coated with human CD200R1 (R&D systems, 3414-CD) recombinant protein at a concentration of 2 μg/mL at 4° C. for 16 hours, and blocked with 3% skim milk for 1 hour. […] The result was washed with PBST and distilled water, and the samples were bound with Pierce™ High Sensitivity Streptavidin-HRP (Thermo Scientific, 21130) at room temperature for 1 hour, and then washed again with PBST and distilled water. TMB substrate solution (Thermo Scientific, 34029, 1-Step™ Ultra TMB-ELISA substrate solution) was added to develop the color. The reaction was stopped with stop solution (Invitrogen, SS04, ELISA Stop Solution).

The target of experiment [6] is T5, recombinant human CD200R1 Fc chimera …. Description: ELISA, plate-bound human CD200R1-Fc (2 ug/mL), IgG 0.0192-300 nM, anti-human IgG F(ab')2-HRP, OD 450 nm; panel 'human CD200R1'. The method, then: as §1, §2
Experiment [7] addresses T1, mouse CD200R1 protein (R&D systems, …). In words: ELISA, plate-bound mouse CD200R1 (2 ug/mL), IgG 0.0192-300 nM, OD 450 nm; panel 'mouse CD200R1'. In a few lines:
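Wells coated with antigen at 2 μg/mL (4 °C, 16 h) and blocked with 3% skim milk before IgG addition. Bound antibody developed with TMB, reaction stopped, absorbance read at 450 nm.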

Another experiment concerns the target T6, Hybrid CD200R1 MH (mouse;human, UniProt Q9ES57;Q8TD46).
T6 construct: single domain; mouse D1 over human D2; also called MH hybrid domain; P001 MH domain
T6 sequence (hybrid extracellular part, looked up): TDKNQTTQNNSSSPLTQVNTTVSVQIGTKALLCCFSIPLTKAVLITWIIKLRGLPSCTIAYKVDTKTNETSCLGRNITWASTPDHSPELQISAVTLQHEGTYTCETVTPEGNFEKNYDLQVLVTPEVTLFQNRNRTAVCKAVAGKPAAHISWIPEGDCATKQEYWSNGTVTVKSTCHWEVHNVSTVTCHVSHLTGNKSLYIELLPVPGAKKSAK
In words: ELISA, plate-bound MH hybrid (1 ug/mL), antibody 0.0192-300 nM, O.D 450 nm; panel 'P001 MH domain-3)'. The procedure:
Recombinant proteins were produced from the extracellular Ig-like V-type domain and Ig-like C2-type domain of human CD200R1, each designed as human-mouse (HM hybrid domain) and mouse-human (MH hybrid domain) recombinant proteins. A 96-well plate was coated at a concentration of 1 μg/mL with each protein at 4° C. for 16 hours and blocked with 3% skim milk. […] After color development with TMB substrate solution (Thermo Scientific, 34029, 1-Step™ Ultra TMB-ELISA Substrate Solution), the color reaction was stopped with a stop solution (Invitrogen, SS04, ELISA Stop Solution), and the absorbance was measured at an O.D. of 450 nm.

“And” between values parts separate entries of the source, which are not always exact repeats. Equal entries are not always repeated. Some results are limits rather than exact numbers.

B1: P001018v26 (antibody, V domains shown)
VH: QVQLVQSGAEVKKPGASVKVSCKASGYTFTSYVMHWVRQAPGQGLEWMGYINPYNDDTNYNEKFKGRVTMTRDTSTSTVYMELSSLRSEDTAVYYCAREDYYGSRWGTWGQGTLVTVSS
VL: DIVLTQSPASLAVSPGQRATITCRASKSVSTSGYSYMHWYQQKPGQPPKLLIYLASNLESGVPARFSGSGSGTDFTLTINPVEANDTANYYCQHSHELLTFGQGTKVEIK
notes: H3-Y102T, L3-R92H
B1: the binding result in experiment [1] is listed as “binds”; in experiment [3], “no binding (tested: 300 nM)”. Moreover, the EC50 (read off the curve) (usually the concentration that produces a half-maximal response) in experiment [2] was ~2 nM and ~4 nM.

B2: P001002 (IgG) (antibody, V domains shown)
VH: EVQLLESGGGLVQPGGSLRLSCAASGFTFSSYAMSWVRQAPGKGLEWVSWISYDSSSKYYADSVKGRFTISRDNSKNTLYLQMNSLRAEDTAVYYCARGVVQPYLWTEFDYWGQGTLVTVSS
VL: QSVLTQPPSASGTPGQRVTISCSGSSSNIGSNYVNWYQQLPGTAPKLLIYSDSHRPSGVPDRFSGSKSGTSASLAISGLRSEDEADYYCGSWDDSLSGYVFGGGTKLTVL
With B2, the “MFI normalized to P001017 (chimeric OX108), %” value in experiment [4] is above 50%. For the same molecule, the half-inhibitory concentration (IC50) (commonly the midpoint of a concentration-inhibition curve) in experiment [5] was determined as 11.5 nM. The concentration giving a half-maximal response (EC50 (read off the curve)) in experiment [6] was around 0.8 nM. The binding result in experiment [7] and in experiment [3] was “no binding (tested: 300 nM)” each time.

B3: P001012 (IgG) (antibody, V domains shown)
VH: EVQLLESGGGLVQPGGSLRLSCAASGFTFSGYDMSWVRQAPGKGLEWVSGISSSGGNKYYADSVKGRFTISRDNSKNTLYLQMNSLRAEDTAVYYCARAIRPCISAPCYYDDAMDVWGQGTLVTVSS
VL: QSVLTQPPSASGTPGQRVTISCTGSSSNIGSNYVSWYRQLPGTAPKLLIYSDSQRPSGVPDRFSGSKSGTSASLAISGLRSEDEADYYCGSWDYSLSAYVFGGGTKLTVL
For B3, the binding result (with Hybrid CD200R1 MH; in experiment [7]; in experiment [3]) was “no binding (tested: 300 nM)” each time.
